Test [1] addresses type 2 ryanodine receptor (RyR2) channel in cardiac SR membranes (pig (endogenous in porcine heart SR)). In words: FRET or BRET; as a1 but 300 uM Ca2+, no DPc10. In general terms: Bioluminescence resonance energy transfer reports proximity on the nanometre scale.
The target is the same in test [2]. Put plainly: FRET or BRET; as a1, 30 nM Ca2+, SR pre-treated with 50 uM unlabeled DPc10 for 60 min; apparent affinity.
Test [3] deals with T1, type 2 ryanodine receptor (RyR2) channel in cardiac SR membranes (pig (endogenous in porcine heart SR), UniProt A0A5G2R1W3 1-4900).
T1 construct: type 2 ryanodine receptor (RyR2), pig heart; homotetrameric assembly of 565-kDa protomers; 'intact RyR2 in cardiac SR vesicles'; In every assay RyR2 stood in native SR membranes and was preloaded with a donor-labelled FKBP12.6 (D-FKBP); also called cardiac ryanodine receptor; source: endogenous, SR vesicles isolated by differential ultracentrifugation of porcine ventricular tissue; residual …
Put plainly: FRET or BRET; as a6 but 300 uM Ca2+, no CaM; Hill fit. The settings on record: one partner purified.

The target of test [4] is T1, type 2 ryanodine receptor (RyR2) …. In words: FRET or BRET; FRET from D-14-FKBP on RyR2 in cardiac SR to A-DPc10, series of [A-DPc10]; Ca2+ not stated for this experiment; Hill fit. The settings on record: one partner purified.
For test [5] the target is unchanged. In words: FRET or BRET; FRET from D-49-FKBP on RyR2 in cardiac SR to A-DPc10, series of [A-DPc10]; Ca2+ not stated for this experiment; Hill fit. The settings on record: one partner purified.
For test [6] the target is unchanged. Put plainly: FRET or BRET; FRET from D-85-FKBP on RyR2 in cardiac SR to A-DPc10, series of [A-DPc10]; Ca2+ not stated for this experiment; Hill fit. The settings on record: one partner purified.
For test [7] the target is unchanged. In words: FRET or BRET; as a6, 30 nM Ca2+, pre-incubated 40 min with unlabeled CaM (1 uM by the legend, 30 uM by the text); apparent affinity; Hill fit. The settings on record: one partner purified.
Test [8] shares this target. In words: FRET or BRET; as a6 but 300 uM Ca2+, pre-incubated 40 min with unlabeled CaM (1 uM by the legend, 30 uM by the text); apparent affinity; Hill fit. The settings on record: one partner purified.
The target is the same in test [9]. In words: FRET or BRET; FRET from D-32-FKBP (loss-of-inhibition variant) on RyR2 in cardiac SR to A-DPc10, series of [A-DPc10]; Ca2+ not stated for this experiment; Hill fit. The settings on record: one partner purified.
The target is the same in test [10]. Put plainly: FRET or BRET; FRET from D-FKBP (labelled position not stated for this experiment) on RyR2 in cardiac SR to A-DPc10 (QXL520), series of [A-DPc10]; 30 nM Ca2+, no CaM; Hill fit. The settings on record: one partner purified.
For test [11] the target is unchanged. The description is as above. The settings on record: one partner purified. The source holds these as a separate data set.

Ends that are not written are not given here. QXL520 = non-fluorescent dark acceptor (quencher) probe

For “acceptor-labeled calmodulin (A-CaM), Alexa Fluor 555 at a cysteine substituted at position 34 (natural protein)”, the fold higher affinity in 300 uM Ca2+ against 30 nM Ca2+ in [1] amounted to 2.7 fold. Moreover, the fold decrease of apparent affinity with 50 uM DPc10 against no DPc10 in test [2] worked out at 4 fold.

B1: acceptor-labeled DPc10 (A-DPc10), QXL520 at the N-terminus (peptide)
peptide: QXL520-GFCPDHKAAMVLFLDRVYGIEVQDFLLHLLEVGFLP
notes: also called acceptor-DPc10; source: synthetic peptide (AnaSpec)
For B1, the Kd in [3] was 13.2 µM; in test [4], 10 µM; in test [5] it was 9.9 µM; in test [6], 10.4 µM; in test [7], 14.6 µM; in test [8], 33.9 µM. Moreover, the Kd in test [9] is 13.1 µM; in [10] it was 10.3 µM; in [11] it was 10.4 µM.

These data come from PMC10454150, “Molecular Mechanism of a FRET Biosensor for the Cardiac Ryanodine Receptor Pathologically Leaky State” (International Journal of Molecular Sciences, 2023).
